Experimental data published in paper PMC2193777.

Target: strepAID (human, UniProt Q9GZX7 1-198)
Experiment: EMSA

Sequence of strepAID (Q9GZX7 whole entry): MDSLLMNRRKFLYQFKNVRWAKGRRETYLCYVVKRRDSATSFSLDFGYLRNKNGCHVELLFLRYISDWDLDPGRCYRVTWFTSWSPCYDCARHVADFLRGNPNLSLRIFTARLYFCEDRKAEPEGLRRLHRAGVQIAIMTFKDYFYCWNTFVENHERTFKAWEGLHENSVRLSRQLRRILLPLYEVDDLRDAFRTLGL

B1: ssDNA (TCGend) (ssDNA)
DNA: ATCGGAATGTATGAGAATAGAAGAGATAATGAATAATAGAA
Question: Does B1 bind?
Answer: binds

B2: ssRNA (ssRNA)
RNA: AUCGGAAUGUAUGAGAAUAGAAGAGAUAAUGAAUAAUAGAA
Question: Does B2 bind?
Answer: binds
